This sample holds only a part of the variants without activity.
B1: TPR 5TU (parent)
chain: GGAUCUUCUCGAUCUAACAAAAAAGACAAAUCUGCCACAAAGCUUGAGAGCAUCUUCGGAUGCAGAGGCGGCAGCCUUCGGUGGCGCGAUAGCGCCAACGUUCUCAACUAUGACACGCAAAACGCGUGCUCCGUUGAAUGGAGUUUAUCAUG

Variants of: B1
Assay: polymerase ribozyme fitness, log enrichment relative to wild type (log ratio); higher = more active; in vitro selection for triplet polymerase activity
Method in brief: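 The heterodimeric triplet polymerase ribozyme's subunits were each mutagenized into PCR-built libraries and transcribed. Every library was selected once, in triplicate, by annealing with a biotinylated primer, the partner subunit and triplets, incubating frozen at −7 °C, gel-excising extended constructs, capturing on streptavidin beads and running RT-PCR. Input and output libraries were Illumina-sequenced, with genotypes kept only at ≥10 input reads and ≥1 read per output. Fitness, from inverse-variance-weighted replicate averages, is the base-2 logarithm of genotype enrichment over wild-type enrichment.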

U7G A19C A30U G71C G84A C96G C118G and U7G G74A C103A cannot be ordered by “polymerase ribozyme fitness (log ratio)” value: at most -4.2 for the first, at most -4.2 for the second.

U7C C27U C38U C54G A64G C75U C85A C96U C105G C114U and C8A C18U A20G U45A G59C G62A C76U C114G cannot be ordered by “polymerase ribozyme fitness (log ratio)” value: at most -4.2 for the first, at most -4.2 for the second.

First: U7C U9G C54U A107C U127A
Second: U6G A39C C85A A98G G126C
The “polymerase ribozyme fitness (log ratio)” value of the first is lower: at most -4.2 for the first, -3.91 for the second.

U7A A28G A40U A49C G50C C87A U144G and U7A A19C G92C C105A A115U C116U A137U cannot be ordered by “polymerase ribozyme fitness (log ratio)” value: at most -4.2 for the first, at most -4.2 for the second.

C8A A52C C87A and U6G C27U A49C C79G A89U C93U C132A cannot be ordered by “polymerase ribozyme fitness (log ratio)” value: at most -4.2 for the first, at most -4.2 for the second.

First: U6G C51U G84A U146G
Second: U6G C10G A21G G71A C76U C85A
The “polymerase ribozyme fitness (log ratio)” value of the first is higher: -1.28 for the first, at most -4.2 for the second.

First: U7C A12G C96U
Second: U7C C38A C51G G83U G84A
The “polymerase ribozyme fitness (log ratio)” value of the first is higher: -2.17 for the first, at most -4.2 for the second.

First: C8A A142C
Second: U7G A47C A49U G86U C99U
The “polymerase ribozyme fitness (log ratio)” value of the first is higher: -4.11 for the first, at most -4.2 for the second.

U7A U9A A21U U55A G59A C99G C129U A147C and C8A A17G A73U U78G C87U cannot be ordered by “polymerase ribozyme fitness (log ratio)” value: at most -4.2 for the first, at most -4.2 for the second.

U7G A23C A24U C54G and C8A C10U C75A G86A A98U A138C cannot be ordered by “polymerase ribozyme fitness (log ratio)” value: at most -4.2 for the first, at most -4.2 for the second.

Going from U6G U44G A47U U53C A64C C103A to C8A A26G A37C G62A A120G G140C G152A, the “polymerase ribozyme fitness (log ratio)” value rises from at most -4.2 to -4.13.

C8A C18G A40G C54G A73C C87A U90A C114U and C8A A22C C27U U44C C51U C79A C93G C95G C105G cannot be ordered by “polymerase ribozyme fitness (log ratio)” value: at most -4.2 for the first, at most -4.2 for the second.

First: U7C G86U
Second: U6G G58C C131A
The “polymerase ribozyme fitness (log ratio)” value of the first is lower: -3.7 for the first, -2.15 for the second.

Going from U7A A20G C35U A47G G83A C96A to U7G A47U U55A C57A C63U C95U, the “polymerase ribozyme fitness (log ratio)” value rises from at most -4.2 to -3.6.

Going from U6G G92A to U7G A20C A40C G48U A64U A89U G92U U101C C132A, the “polymerase ribozyme fitness (log ratio)” value falls from -2.59 to at most -4.2.

First: U7C U56A A91U A106U C132U
Second: U6G A40U U56A C93U A106C
The “polymerase ribozyme fitness (log ratio)” value of the first is lower: -3.92 for the first, -1.92 for the second.

Going from U7A C76U G94A C105U U151A to C8A C10G C18U A21U C54A C87U A120G, the “polymerase ribozyme fitness (log ratio)” value falls from -3.84 to at most -4.2.

U7G U15A G58U G70C A91G and U7C A12C A24C C96U A120C cannot be ordered by “polymerase ribozyme fitness (log ratio)” value: at most -4.2 for the first, at most -4.2 for the second.

U7A A26C U31A G34C G70U U78G G117A C118U A119C and U6G C27A U33C C85A G88A U134C cannot be ordered by “polymerase ribozyme fitness (log ratio)” value: at most -4.2 for the first, at most -4.2 for the second.

Going from U6G C85A C125G to U6G G48C A52G C96A A121U G140A, the “polymerase ribozyme fitness (log ratio)” value falls from -0.955 to at most -4.2.

Going from U6G C85A to U6G C85U, the “polymerase ribozyme fitness (log ratio)” value rises from -1.09 to -0.35.

Going from U6G C69U G84A A106C to U7G C69G C93A, the “polymerase ribozyme fitness (log ratio)” value falls from -2.47 to at most -4.2.

Compared with U7A A23C C36A U56A A91U C132G, U6G U13G C57G is higher in “polymerase ribozyme fitness (log ratio)” value: -3.78 for the first, -2.26 for the second.

U7C C18G G86A U148A and U7A C43U A49G A110G cannot be ordered by “polymerase ribozyme fitness (log ratio)” value: -4.2 for the first, at most -4.2 for the second.

U7G G50C U56G G94C and U7A A16U A20G G48A C57A G58U A64G C87A G92U G126A C129A A137C cannot be ordered by “polymerase ribozyme fitness (log ratio)” value: at most -4.2 for the first, at most -4.2 for the second.

Going from U6G G128U to U7A C93G A113U A138C, the “polymerase ribozyme fitness (log ratio)” value falls from -3.77 to at most -4.2.

U7A C54A C72A and U6G A37C C51G G74C A98U C103A C118A G128U U135C U146C G152A cannot be ordered by “polymerase ribozyme fitness (log ratio)” value: at most -4.2 for the first, at most -4.2 for the second.

First: U7G G25C A60G C93U C123U
Second: U6G A120G
The “polymerase ribozyme fitness (log ratio)” value of the first is lower: at most -4.2 for the first, -0.399 for the second.

First: U6G U134C
Second: U7C G50U G140U
The “polymerase ribozyme fitness (log ratio)” value of the first is higher: -0.128 for the first, at most -4.2 for the second.

U7A C8G A89C C95G and C8A A28U C79U C93U C105U cannot be ordered by “polymerase ribozyme fitness (log ratio)” value: at most -4.2 for the first, at most -4.2 for the second.

U7A A28U G46C G50A C95G C103G C129A U144C and C8A A30U A40U G48C G84A A113U C132A cannot be ordered by “polymerase ribozyme fitness (log ratio)” value: at most -4.2 for the first, at most -4.2 for the second.

C8A C27A C57G G92A and U6G U9C A12C U45A C76G A91C C96G cannot be ordered by “polymerase ribozyme fitness (log ratio)” value: at most -4.2 for the first, at most -4.2 for the second.

U7C A21C A24C G62C C76A G133C and U7G A22G C32U G59C U77G C114U U145A cannot be ordered by “polymerase ribozyme fitness (log ratio)” value: at most -4.2 for the first, at most -4.2 for the second.

Compared with U6G C75U, U6G G48U G58A C76G U82C C93U A122C A138G A142G is lower in “polymerase ribozyme fitness (log ratio)” value: 0.374 for the first, at most -4.2 for the second.

C8A A16G A29U A47U G71U C93A A106G G133U C149U and U7G C10A C75A C87A C125G A138U cannot be ordered by “polymerase ribozyme fitness (log ratio)” value: at most -4.2 for the first, at most -4.2 for the second.

First: C8A A17G U78G G94A G133A U134A
Second: U6G G50U C95U
The “polymerase ribozyme fitness (log ratio)” value of the first is lower: at most -4.2 for the first, 0.0133 for the second.

Going from C8A A17U A26U G48U G68U C93G C132G G141C U148G to U6G U31G G84U, the “polymerase ribozyme fitness (log ratio)” value rises from at most -4.2 to -0.345.

U7A A20C C93G C116G U135G and U7C C18G C43G G48A G58C C63U C76G cannot be ordered by “polymerase ribozyme fitness (log ratio)” value: at most -4.2 for the first, at most -4.2 for the second.

Going from C8A A21C to C8A C14U A37G C54U C85U, the “polymerase ribozyme fitness (log ratio)” value falls from -3.76 to at most -4.2.

Compared with U6G C87U C131U, U6G U31C G50A A147C is lower in “polymerase ribozyme fitness (log ratio)” value: 0.928 for the first, -2.65 for the second.

Going from U7A A20U U31G C116U to U7G G11C U33C A64U C96A A122G G124A G140U, the “polymerase ribozyme fitness (log ratio)” value falls from -3.58 to at most -4.2.

First: U6G G65U G71C G94A C103G A122G
Second: U6G G59A G92A C95A C105U
The “polymerase ribozyme fitness (log ratio)” value of the first is lower: at most -4.2 for the first, -4.19 for the second.
